Read-outs that look alike come from different tables or passages of the source.
Tests used:
[1] = molecular target: T1, human MMP-9 (hMMP-9) (Homo sapiens, UniProt P14780 107-457); assay: AuNS aggregation by strand displacement
[2] = molecular target: T1, human MMP-9 (hMMP-9); assay: AuNS aggregation by strand displacement; remark: listed apart in the source

T1 sequence (P14780 107-457): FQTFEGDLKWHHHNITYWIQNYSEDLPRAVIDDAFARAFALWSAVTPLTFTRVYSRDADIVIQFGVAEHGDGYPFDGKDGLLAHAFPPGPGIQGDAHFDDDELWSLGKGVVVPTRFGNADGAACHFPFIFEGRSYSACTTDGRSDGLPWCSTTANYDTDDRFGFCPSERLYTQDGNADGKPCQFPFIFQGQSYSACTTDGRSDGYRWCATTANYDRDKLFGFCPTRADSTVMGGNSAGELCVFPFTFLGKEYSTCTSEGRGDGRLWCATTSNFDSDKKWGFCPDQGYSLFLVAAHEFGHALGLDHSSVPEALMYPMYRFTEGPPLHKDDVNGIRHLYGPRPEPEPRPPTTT

B1: MMP-9 aptamer (annealed to comp-1 on AuNS-1; MMP sensor) (mixed)
DNA 1: TCGTATGGCACGGGGTTGGTGTTGGGTTGG
DNA 2: GGTGTGCCATACGAAA
modifications: 3' ThioMC3-D (thiol) on comp-1
B1: binds [1].

B2: control aptamer (annealed to control comp-1 on cAuNS-1; control sensor) (mixed)
DNA 1: CCGGTGTTCGAGACAAGAGTCCAGGG
DNA 2: CTCTCGAACACCGGAA
modifications: 3' ThioMC3-D (thiol) on control comp-1
B2: no binding [2].

Reference: publication PMC8521288
